Results: publication PMC4808055 (Nature cell biology, 2015)

Biological target: T1, yeast Twinfilin (Twf1), full-length (1-332) (yeast, UniProt P53250 1-332)
T1 sequence: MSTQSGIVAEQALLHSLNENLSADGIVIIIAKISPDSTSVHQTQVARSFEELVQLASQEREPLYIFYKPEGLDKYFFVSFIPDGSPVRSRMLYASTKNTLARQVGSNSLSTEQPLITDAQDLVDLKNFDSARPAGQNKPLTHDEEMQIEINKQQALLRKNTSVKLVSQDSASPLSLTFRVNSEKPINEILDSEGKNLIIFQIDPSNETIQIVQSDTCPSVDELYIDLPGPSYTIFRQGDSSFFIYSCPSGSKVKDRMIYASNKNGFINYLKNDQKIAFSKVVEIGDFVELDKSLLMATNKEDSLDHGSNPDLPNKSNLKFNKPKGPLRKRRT
Test: negative-stain electron microscopy

B1: N-Srv2 (1-259) (domain or fragment)
chain: MPDSKYTMQGYNLVKLLKRLEEATARLEDVTIYQEGYIQNKLEASKNNKPSDSGADANTTNEPSAENAPEVEQDPKCITAFQSYIGENIDPLVELSGKIDTVVLDALQLLKGGFQSQLTFLRAAVRSRKPDYSSQTFADSLRPINENIIKLGQLKESNRQSKYFAYLSALSEGAPLFSWVAVDTPVSMVTDFKDAAQFWTNRILKEYRESDPNAVEWVKKFLASFDNLKAYIKEYHTTGVSWKKDGMDFADAMAQSTKN
B1: binds.
